Test [1] addresses human αvβ3 integrin on cells (human) (UniProt P06756). Put plainly: 125-I antibody saturation binding on A375S2 cells.
Test [2] deals with human αVβ3 integrin, purified (human) (UniProt P06756). Put plainly: saturation ELISA on αvβ3-coated plate, n = 6. In general terms: An ELISA detects its analyte on a solid surface through an enzyme-linked reagent.
Test [3] has as its target human αvβ3 integrin on cells (human) (UniProt P06756). Put plainly: 125-I antibody saturation binding on M21 cells.

Chain of human αvβ3 integrin on cells (human) (P06756 31-1048, chain 1 of 2): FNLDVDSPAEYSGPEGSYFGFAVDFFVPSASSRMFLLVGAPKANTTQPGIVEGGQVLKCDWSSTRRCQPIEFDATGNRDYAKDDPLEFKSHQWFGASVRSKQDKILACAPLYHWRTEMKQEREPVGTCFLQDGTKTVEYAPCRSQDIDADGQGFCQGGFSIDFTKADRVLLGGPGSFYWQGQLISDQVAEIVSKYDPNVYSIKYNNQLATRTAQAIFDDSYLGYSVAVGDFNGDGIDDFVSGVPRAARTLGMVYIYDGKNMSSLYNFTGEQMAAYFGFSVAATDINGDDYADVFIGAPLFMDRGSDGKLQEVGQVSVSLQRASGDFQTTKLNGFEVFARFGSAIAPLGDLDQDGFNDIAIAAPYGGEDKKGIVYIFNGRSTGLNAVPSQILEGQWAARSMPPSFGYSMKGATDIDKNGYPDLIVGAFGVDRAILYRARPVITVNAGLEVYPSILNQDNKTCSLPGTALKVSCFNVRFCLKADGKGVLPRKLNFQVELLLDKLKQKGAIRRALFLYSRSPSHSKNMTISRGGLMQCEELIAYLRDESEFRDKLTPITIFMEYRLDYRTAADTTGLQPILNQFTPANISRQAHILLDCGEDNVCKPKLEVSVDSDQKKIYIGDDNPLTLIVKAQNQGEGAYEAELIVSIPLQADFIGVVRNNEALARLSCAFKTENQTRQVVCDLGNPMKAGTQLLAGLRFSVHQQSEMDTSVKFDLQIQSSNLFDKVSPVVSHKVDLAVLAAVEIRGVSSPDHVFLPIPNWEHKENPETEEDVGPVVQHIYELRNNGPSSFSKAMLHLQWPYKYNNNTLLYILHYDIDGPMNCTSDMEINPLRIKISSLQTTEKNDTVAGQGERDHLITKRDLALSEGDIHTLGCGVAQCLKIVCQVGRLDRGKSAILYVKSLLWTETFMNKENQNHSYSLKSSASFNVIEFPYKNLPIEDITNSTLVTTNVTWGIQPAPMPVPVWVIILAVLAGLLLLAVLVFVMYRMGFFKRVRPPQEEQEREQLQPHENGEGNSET
Chain of human αvβ3 integrin on cells (human) (P05106 27-788, chain 2 of 2, further chain): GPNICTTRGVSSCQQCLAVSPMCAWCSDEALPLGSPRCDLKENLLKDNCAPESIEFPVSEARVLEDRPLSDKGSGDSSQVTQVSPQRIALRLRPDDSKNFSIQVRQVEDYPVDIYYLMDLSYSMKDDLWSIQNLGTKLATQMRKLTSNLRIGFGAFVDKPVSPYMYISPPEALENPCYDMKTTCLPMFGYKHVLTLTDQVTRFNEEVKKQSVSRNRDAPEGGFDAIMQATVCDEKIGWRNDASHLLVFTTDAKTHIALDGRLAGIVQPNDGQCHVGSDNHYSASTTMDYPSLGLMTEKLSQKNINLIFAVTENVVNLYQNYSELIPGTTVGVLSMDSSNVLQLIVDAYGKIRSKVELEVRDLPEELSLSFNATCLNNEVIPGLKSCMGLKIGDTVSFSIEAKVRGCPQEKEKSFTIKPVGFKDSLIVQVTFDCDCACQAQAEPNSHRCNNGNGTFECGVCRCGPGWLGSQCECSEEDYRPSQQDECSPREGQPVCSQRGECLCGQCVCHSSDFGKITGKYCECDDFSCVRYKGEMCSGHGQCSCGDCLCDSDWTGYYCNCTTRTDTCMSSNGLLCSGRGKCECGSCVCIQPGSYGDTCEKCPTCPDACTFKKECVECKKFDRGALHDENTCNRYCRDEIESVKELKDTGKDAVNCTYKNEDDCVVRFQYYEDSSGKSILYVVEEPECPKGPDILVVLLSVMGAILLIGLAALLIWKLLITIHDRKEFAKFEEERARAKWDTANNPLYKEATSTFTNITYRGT
Chain of human αVβ3 integrin, purified (human) (P06756 31-1048, form in doubt, chain 1 of 2): as the sequence (P06756 31-1048, chain 1 of 2) above
Chain of human αVβ3 integrin, purified (human) (P05106 27-788, form in doubt, chain 2 of 2, further chain): as the sequence (P05106 27-788, chain 2 of 2, further chain) above

B1: abciximab (Fab, INN chains, looked up, V domains shown)
VH: EVQLQQSGTVLARPGASVKMSCEASGYTFTNYWMHWVKQRPGQGLEWIGAIYPGNSDTSYIQKFKGKAKLTAVTSTTSVYMELSSLTNEDSAVYYCTLYDGYYVFAYWGQGTLVTVSA
VL: EIVLTQSPVTLSVTPGDSVSLSCRASRDISNNLHWFQQTSHESPRLLIKYASQSMSGIPSRFSGSGSGTDFTLSINSVETEDFGMYFCQQTNSWPYTFGGGTKLEIK
modifications: Fab 125I label
B1: the Kd was determined as 22 nM in test [1], 0.25 nM in test [2] and 10 nM in test [3]. Besides, the Receptors per cell (receptors per cell) in test [1] stood at 370000; in test [3] it was 660000.

Broadly, the Kd is the concentration at which binding is half-saturated. Read a low Kd as a tighter complex.

The values above are taken from patent US20090217392A1.
